Measured values published in patent US20090083877A1, “Transcription Factors, DNA and Methods for Introduction of Value-Added Seed Traits and Stress Tolerance” (priority 2002, published 2009).
Entries after “also recorded” stand apart in the source; their conditions may differ.

B1: ABF3: Arabidopsis ABI5-like ABA-Response Element-Binding Factor, bZIP, At4g34000 (protein)
chain: MGSRLNFKSFVDGVSEQQPTVGTSLPLTRQNSVFSLTFDEFQNSWGGGIGKDFGSMNMDELLKNIWTAEESHSMMGNNTSYTNISNGNSGNTVINGGGNNIGGLAVGVGGESGGFFTGGSLQRQGSLTLPRTISQKRVDDVWKELMKEDDIGNGVVNGGTSGIPQRQQTLGEMTLEEFLVRAGVVREEPQPVESVTNFNGGFYGFGSNGGLGTASNGFVANQPQDLSGNGVAVRQDLLTAQTQPLQMQQPQMVQQPQMVQQPQQLIQTQERPFPKQTTIAFSNTVDVVNRSQPATQCQEVKPSILGIHNHPMNNNLLQAVDFKTGVTVAAVSPGSQMSPDLTPKSALDASLSPVPYMFGRVRKTGAVLEKVIERRQKRMIKNRESAARSRARKQAYTMELEAEIAQLKELNEELQKKQVEIMEKQKNQLLEPLRQPWGMGCKRQCLRRTLTGPW
B2: ABF2: Arabidopsis ABI5-like ABA-Response Element-Binding Factor, bZIP, At1g45249 (protein, listed as Arabidopsis thaliana)
chain: MDGSMNLGNEPPGDGGGGGGLTRQGSIYSLTFDEFQSSVGKDFGSMNMDELLKNIWSAEETQAMASGVVPVLGGGQEGLQLQRQGSLTLPRTLSQKTVDQVWKDLSKVGSSGVGGSNLSQVAQAQSQSQSQRQQTLGEVTLEEFLVRAGVVREEAQVAARAQIAENNKGGYFGNDANTGFSVEFQQPSPRVVAAGVMGNLGAETANSLQVQGSSLPLNVNGARTTYQQSQQQQPIMPKQPGFGYGTQMGQLNSPGIRGGGLVGLGDQSLTNNVGFVQGASAAIPGALGVGAVSPVTPLSSEGIGKSNGDSSSLSPSPYMFNGGVRGRKSGTVEKVVERRQRRMIKNRESAARSRARKQAYTVELEAEVAKLKEENDELQRKQARIMEMQKNQETEMRNLLQGGPKKKLRRTESGPW
B3: ABF4: Arabidopsis ABI5-like ABA-Response Element-Binding Factor, bZIP, At3g19290 (protein, listed as Arabidopsis thaliana)
chain: MGTHINFNNLGGGGHPGGEGSSNQMKPTGSVMPLARQSSVYSLTFDELQNTLGGPGKDFGSMNMDELLKSIWTAEEAQAMAMTSAPAATAVAQPGAGIPPPGGNLQRQGSLTLPRTISQKTVDEVWKCLITKDGNMEGSSGGGGESNVPPGRQQTLGEMTLEEFLFRAGVVREDNCVQQMGQVNGNNNNGFYGNSTAAGGLGFGFGQPNQNSITFNGTNDSMILNQPPGLGLKMGGTMQQQQQQQQLLQQQQQQMQQLNQPHPQQRLPQTIFPKQANVAFSAPVNITNKGFAGAANNSINNNNGLASYGGTGVTVAATSPGTSSAENNSLSPVPYVLNRGRRSNTGLEKVIERRQRRMIKNRESAARSRARKQAYTLELEAEIEKLKKTNQELQKKQAEMVEMQKNELKETSKRPWGSKRQCLRRTLTGPW

Assays:
[1] = test system: ABA-inducible wheat Em promoter; assay: Em-GUS reporter transactivation in transiently transformed rice protoplasts; assay type: cell-based, Oryza sativa; conditions: for Transactivation of Em-GUS expression by overexpressed effector: effector overexpressed alone, average of four replicate transformations
Experimental: Embryonic rice (Oryza sativa) callus cultures (Radon 6 from the International Rice Research Institute, Los Bafios, Phillipines) were obtained. Embryonic rice callus cultures were grown as suspensions in liquid culture as well as on phytagel plates containing MS medium supplemented with 2.0 mg/L 2,4-D. Cultures were propagated and digested for making protoplasts as previously described except that 10 mM HEPES (Sigma, St. Louis, Mo., USA), pH 5.6, was substituted for phosphate in the Krens'F medium, and 2% (weight/volume; w/v) cellulase YC, 0.35% (w/v) macerozyme, and 0.1% (w/v) pectolyase Y23 were used for overnight digestion (Karlan Research Products, Santa Rosa, CA, USA). Protoplasts were transformed with various mixtures of DNA reporter and effector constructs using polyethylene glycol precipitation. Transformed protoplasts were incubated with or without 100 μM ABA for 16 h in the dark in Krens solution before quantifying β-glucuronidase (GUS) and luciferase (LUC) reporter enzyme activities as previously described. ABA was dissolved and stored in absolute ethanol at −20° C. as a 0.1 M stock solution. Prior to use, required dilutions of ABA were made in Krens solution, and control samples received the same volume of solvent as in ABA treatments.
(§1) Plasmid pBM207 contains the wheat (Triticum aestivum) Early Methionine-labeled (Em) promoter driving the expression of GUS, encoded by uida from Escherichia coli. Plasmid pDH359 contains ABI5 cDNA driven by Ubiquitin promoter. Plasmid pCR349.13S contains the 35S promoter driving the VP1 sense cDNA. Plasmid pDirect2.6 contains the Ubi promoter in a reverse orientation and was used as control construct to balance the total amount of input plasmid DNA between various treatments. Plasmid pAHC 18 contains the Ubi promoter driving firefly (Photinus pyralis) LUC cDNA and was included in transformations to provide an internal reference for non-ABA-inducible transient transcription in reporter enzyme assays. ABF1-ABF4, AREB3, and DPBF4 were amplified by PCR using gene-specific primers from an Arabidopsis cDNA library (Minet et al. Plant J. 2:417 (1992)) and were cloned into plasmid pDH349 (Gampala et al. J. Biol. Chem. 277: 1689 (2002)) containing the maize Ubiquitin promoter and nopaline synthase 3′ termination signals.
Simultaneously, it has been shown that ABF2, ABF3 and ABF4 overexpression in transgenic Arabidopsis results in ABA hypersensitivity and other ABA-associated phenotypes such as altered ABA-inducible gene expression and glucose signaling, reduced transpiration, and enhanced drought tolerance. The functional roles of the ABI5-like family members ABF1-ABF4 in regulation of ABA-inducible gene expression in rice protoplasts were tested and the results are shown in FIG. 1. […] Protoplasts were transformed with Em-GUS and a “dummy” effector construct (pD2.6 containing only the Ubiquitin promoter used to drive effector expression) or co-transformed with a Ubi-ABF construct and treated with or without 100 μM ABA. The values shown in FIG. 1A are the average (±S.E.M.) of four replicate transformations.
Rice protoplasts were transformed with either Em-GUS alone or in pairwise combinations of Ubi-ABF3, Ubi-ABI5, or 35S-VP1. The values in FIG. 1B are the average (±S.E.M.) of four replicate transformations. ABF3 is a related member of the ABI5-family of bZIP transcription factors.

[2] = test system: ABA-inducible wheat Em promoter; assay: Em-GUS reporter transactivation in transiently transformed maize mesophyll protoplasts; assay type: cell-based; conditions: for Transactivation of Em-GUS expression by overexpressed effector: maize mesophyll protoplasts, effector overexpressed alone
Experimental: Plant Materials. Maize mesophyll protoplasts were isolated from 20-hr illuminated leaves of 10 day old maize seedlings that had been kept in the dark at 25° C. The middle part of the second leaves (about 6 cm in length) was cut into 0.5 mm strips with a razor blade and digested in an enzyme solution containing 1% (w/v) cellulose RS, 0.1% (w/v) macerozyme R10 (Yakult Honsha, Nishinomiya, Japan), 0.6 M mannitol, 10 mM MES (pH 5.7), 1 mM CaCl2, 1 mM MgCl2, 10 mM β-mercaptoethanol, and 0.1% BSA (w/v) for 3 hr at room temperature. Protoplasts were released by shaking on a rotary shaker at 80 rpm for 10 min and were filtered through a 70 μm nylon filter. Protoplasts were collected by centrifugation at 100 g for 2 min, washed in cold 0.6 M mannitol solution, centrifuged, and resuspended at 2×10^6/mL in cold 0.6 M mannitol. Electroporation conditions were 400 V/cm, 200 μF, 10 msec, and two pulses with a Biorad GenePulser apparatus. Each sample contained 5×10^4 protoplasts and about 50 μg DNA in 0.3 mL of 0.6 M mannitol and 20 mM KCl.
as §1
The values in FIG. 2 are the average (±S.E.M.) of four replicate transformations.
To test the involvement of ABI3-Like B3 domain transcription factors in ABA signaling, ABA-inducible reporter gene transactivation by the B3 domain-containing RAV2 was assayed in maize mesophyll protoplasts transiently co-transformed with a full length cDNA under transcriptional control of the Ubiquitin promoter. Activation of Em-GUS reporter gene expression by RAV2, relative to non-ABA inducible Ubi-LUC reference reporter as internal control, and functional interactions of RAV2 with VP1, ABI5, and the ABI5-Like ABF3 were compared in protoplasts treated with or without 100 uM ABA (see FIG. 3).

Molecule	Synergy with exogenous ABA on Em-GUS expression ([1]; 100 μM ABA, 16 h)	Synergistic activity with VP1 relative to that of ABI5 with VP1 ([1]; co-expressed with VP1)	Transactivation of Em-GUS expression by overexpressed effector [1]	Synergy with co-expressed VP1 on Em-GUS expression ([1]; pairwise co-transformation with 35S-VP1)	Synergy with co-expressed ABI5 on Em-GUS expression ([1]; pairwise co-transformation with Ubi-ABI5)	Synergy with co-transformed VP1 on Em-GUS expression [2]	Synergy with exogenous ABA on Em-GUS expression [2]	Transactivation of Em-GUS expression by overexpressed effector [2]
B1	strong; also recorded: acted in synergy with ABA; also recorded: interacts synergistically	about twice the synergistic activity seen between ABI5 and VP1	sufficient for transactivation of the Em promoter; also recorded: transactivated the Em promoter; also recorded: sufficient to transactivate ABA-inducible Em-GUS expression	synergized with each other and with ABA; also recorded: interacts synergistically	did not result in synergy	can synergize with co-transformed VP1	synergize with exogenous ABA	sufficient for transactivation of the Em promoter; also recorded: sufficient for specific Em-GUS transactivation; also recorded: sufficient to transactivate Em-GUS expression
B2			no effect on Em-GUS expression			not	lower levels of ABA synergy compared to ABF3 and ABF4	
B3			sufficient for transactivation of the Em promoter; also recorded: sufficient to transactivate ABA-inducible Em-GUS expression			no functional interactions with VP1 and not	synergize with exogenous ABA	sufficient for transactivation of the Em promoter; also recorded: sufficient to transactivate Em-GUS expression
